What was measured:
[1] = removal of sialic acid or chemical modification of carbohydrate; cited from earlier work
fibrin = settings: versus t-PA control

Molecule	half-life change [1]	fibrin stimulation and specific activity (fibrin)
ceruloplasmin: ceruloplasmin after removal of sialic acid (protein, UniProt P00450 20-1065, looked up, desialylated, ceruloplasmin after removal of sialic acid) Ceruloplasmin: KEKHYYIGIIETTWDYASDHGEKKLISVDTEHSNIYLQNGPDRIGRLYKKALYLQYTDETFRTTIEKPVWLGFLGPIIKAETGDKVYVHLKNLASRPYTFHSHGITYYKEHEGAIYPDNTTDFQRADDKVYPGEQYTYMLLATEEQSPGEGDGNCVTRIYHSHIDAPKDIASGLIGPLIICKKDSLDKEKEKHIDREFVVMFSVVDENFSWYLEDNIKTYCSEPEKVDKDNEDFQESNRMYSVNGYTFGSLPGLSMCAEDRVKWYLFGMGNEVDVHAAFFHGQALTNKNYRIDTINLFPATLFDAYMVAQNPGEWMLSCQNLNHLKAGLQAFFQVQECNKSSSKDNIRGKHVRHYYIAAEEIIWNYAPSGIDIFTKENLTAPGSDSAVFFEQGTTRIGGSYKKLVYREYTDASFTNRKERGPEEEHLGILGPVIWAEVGDTIRVTFHNKGAYPLSIEPIGVRFNKNNEGTYYSPNYNPQSRSVPPSASHVAPTETFTYEWTVPKEVGPTNADPVCLAKMYYSAVEPTKDIFTGLIGPMKICKKGSLHANGRQKDVDKEFYLFPTVFDENESLLLEDNIRMFTTAPDQVDKEDEDFQESNKMHSMNGFMYGNQPGLTMCKGDSVVWYLFSAGNEADVHGIYFSGNTYLWRGERRDTANLFPQTSLTLHMWPDTEGTFNVECLTTDHYTGGMKQKYTVNQCRRQSEDSTFYLGERTYYIAAVEVEWDYSPQREWEKELHHLQEQNVSNAFLDKGEFYIGSKYKKVVYRQYTDSTFRVPVERKAEEEHLGILGPQLHADVGDKVKIIFKNMATRPYSIHAHGVQTESSTVTPTLPGETLTYVWKIPERSGAGTEDSACIPWAYYSTVDQVKDLYSGLIGPLIVCRRPYLKVFNPRRKLEFALLFLVFDENESWYLDDNIKTYSDHPEKVNKDDEEFIESNKMHAINGRMFGNLQGLTMHVGDEVNWYLMGMGNEIDLHTVHFHGHSFQYKHRGVYSSDVFDIFPGTYQTLEMFPRTPGIWLLHCHVTDHIHAGMETTYTVLQNEDTKSG	decreases its half-life dramatically	
glutamine117 glutamic acid275 t-PA: t-PA Carbohydrate Variant Gln117 Glu275 Equivalent (protein, UniProt P00750 36-562, looked up, variant N117Q R275E) Tissue-type plasminogen …: SYQVICRDEKTQMIYQQHQSWLRPVLRSNRVEYCWCNSGRAQCHSVPVKSCSEPRCFNGGTCQQALYFSDFVCQCPEGFAGKCCEIDTRATCYEDQGISYRGTWSTAESGAECTNWQSSALAQKPYSGRRPDAIRLGLGNHNYCRNPDRDSKPWCYVFKAGKYSSEFCSTPACSEGNSDCYFGNGSAYRGTHSLTESGASCLPWNSMILIGKVYTAQNPSAQALGLGKHNYCRNPDGDAKPWCHVLKNRRLTWEYCDVPSCSTCGLRQYSQPQFEIKGGLFADIASHPWQAAIFAKHRRSPGERFLCGGILISSCWILSAAHCFQERFPPHHLTVILGRTYRVVPGEEEQKFEVEKYIVHKEFDDDTYDNDIALLQLKSDSSRCAQESSVVRTVCLPPADLQLPDWTECELSGYGKHEALSPFYSERLKEAHVRLYPSSRCTSQHLLNRTVTDNMLCAGDTRSGGPQANLHDACQGDSGGPLVCLNDGRMTLVGIISWGLGCGQKDVPGVYTKVTNYLDWIRDNMRP		superior to t-PA control in fibrin stimulation and specific activity

— US5714144A, “Human tissue-type plasminogen activator variant” (Genentech, Inc., priority 1995, dated 1998)
